Tests used:
[1] = biological target: FliG 117C/166C protein (E. coli) (UniProt P0ABZ1); test: cross-linking
[2] = biological target: FliG 158C/214C mutant (E. coli) (UniProt P0ABZ1); test: cross-linking

stoichiometry N [1] [subunits] | stoichiometry N [2] [subunits] | Substance
8 | – | FliG 117C/166C protein (from UniProt P0ABZ1 1-331) (natural protein)
– | > 9 | FliG 158C/214C mutant (from UniProt P0ABZ1 1-331) (natural protein)

Source: paper PMC5494207
